Laboratory results: PMC8137935, “Mechanosensitive channel YnaI has lipid-bound extended sensor paddles” (Communications Biology, 2021)

Molecular target: the molecule itself
Assay: cryo-EM structure; purified YnaI in LMNG at ~5 mg/ml, with 3 mM fluorinated Fos-Choline-8 added right before freezing; C7 symmetry imposed; 3.3 Å

B1: YnaI (natural protein, Escherichia coli, UniProt P0AEB5 1-343, looked up)
chain: MIAELFTNNALNLVIIFGSCAALILMSFWFRRGNRKRKGFLFHAVQFLIYTIIISAVGSIINYVIENYKLKFITPGVIDFICTSLIAVILTIKLFLLINQFEKQQIKKGRDITSARIMSRIIKITIIVVLVLLYGEHFGMSLSGLLTFGGIGGLAVGMAGKDILSNFFSGIMLYFDRPFSIGDWIRSPDRNIEGTVAEIGWRITKITTFDNRPLYVPNSLFSSISVENPGRMTNRRITTTIGLRYEDAAKVGVIVEAVREMLKNHPAIDQRQTLLVYFNQFADSSLNIMVYCFTKTTVWAEWLAAQQDVYLKIIDIVQSHGADFAFPSQTLYMDNITPPEQGR
notes: YnaI, Escherichia coli, full-length, UniProt P0AEB5; in the model residues of TM-2 are built as Ala and N335-R343 have no density; Homoheptamer with co-purified lipids; Cloned into pET52b; also called mechanosensitive channel YnaI; MscS homolog YnaI; source: E. coli BL21(DE3) C43, purified in LMNG (TALON, thrombin cut, TALON flow-through, Superose 6); not shown: His-tag, C-terminal, cleaved
stoichiometry N: 7
